B1: Pistol ribozyme (parent)
chain: GGGUCGUUGUUCCAUAAUCGCGUGGAUAUGGCACGCAAGUUUCUACCGGGCACCGUAAAUGUCCGACUGGAGCCGUUCGGGCGGCUAUAAACAGACCUCAGGCCCGAAGCGUGGCGGCACCUGCCGCCGGUGGUAAAAAAGAUCGGAAGAGCACACGUCU

Variants of: B1
Assay: aptazyme ON/OFF ratio, guanine; higher = stronger switching; co-transcriptional cleavage with and without guanine

Row | Variant | aptazyme ON/OFF ratio
1 | GGGUCGCCCGAAAAUAAUCGCGUGGAUAUGGCACGCAAGUUUCUACCGGGCACCGUAAAUGUCCGACUGGAGCCGUUCGGGCGGCUAUAAACAGACCUCAGGCCCGAAGCGUGGCGGCACCUGCCGCCGGUGGUAAAAAAGAUCGGAAGAGCACACGUCU | 1.16
2 | GGGUCGCCCCGAAAUAAUCGCGUGGAUAUGGCACGCAAGUUUCUACCGGGCACCGUAAAUGUCCGACUGGAGCCGUUCGGGCGGCUAUAAACAGACCUCAGGCCCGAAGCGUGGCGGCACCUGCCGCCGGUGGUAAAAAAGAUCGGAAGAGCACACGUCU | 1.08
3 | GGGUCGCCCCGAGAUAAUCGCGUGGAUAUGGCACGCAAGUUUCUACCGGGCACCGUAAAUGUCCGACUGGAGCCGUUCGGGCGGCUAUAAACAGACCUCAGGCCCGAAGCGUGGCGGCACCUGCCGCCGGUGGUAAAAAAGAUCGGAAGAGCACACGUCU | 1.04
4 | GGGUCGCCCCGAUAUAAUCGCGUGGAUAUGGCACGCAAGUUUCUACCGGGCACCGUAAAUGUCCGACUGGAGCCGUUCGGGCGGCUAUAAACAGACCUCAGGCCCGAAGCGUGGCGGCACCUGCCGCCGGUGGUAAAAAAGAUCGGAAGAGCACACGUCU | 1.09
5 | GGGUCGCCCCGGGAUAAUCGCGUGGAUAUGGCACGCAAGUUUCUACCGGGCACCGUAAAUGUCCGACUGGAGCCGUUCGGGCGGCUAUAAACAGACCUCAGGCCCGAAGCGUGGCGGCACCUGCCGCCGGUGGUAAAAAAGAUCGGAAGAGCACACGUCU | 1.12
6 | GGGUCGCCCCGGAAUAAUCGCGUGGAUAUGGCACGCAAGUUUCUACCGGGCACCGUAAAUGUCCGACUGGAGCCGUUCGGGCGGCUAUAAACAGACCUCAGGCCCGAAGCGUGGCGGCACCUGCCGCCGGUGGUAAAAAAGAUCGGAAGAGCACACGUCU | 1.08
7 | GGGUCGCCCCGGUAUAAUCGCGUGGAUAUGGCACGCAAGUUUCUACCGGGCACCGUAAAUGUCCGACUGGAGCCGUUCGGGCGGCUAUAAACAGACCUCAGGCCCGAAGCGUGGCGGCACCUGCCGCCGGUGGUAAAAAAGAUCGGAAGAGCACACGUCU | 1.11
8 | GGGUCGCCCGAACAUAAUCGCGUGGAUAUGGCACGCAAGUUUCUACCGGGCACCGUAAAUGUCCGACUGGAGCCGUUCGGGCGGCUAUAAACAGACCUCAGGCCCGAAGCGUGGCGGCACCUGCCGCCGGUGGUAAAAAAGAUCGGAAGAGCACACGUCU | 1.16
9 | GGGUCGCCCGACCAUAAUCGCGUGGAUAUGGCACGCAAGUUUCUACCGGGCACCGUAAAUGUCCGACUGGAGCCGUUCGGGCGGCUAUAAACAGACCUCAGGCCCGAAGCGUGGCGGCACCUGCCGCCGGUGGUAAAAAAGAUCGGAAGAGCACACGUCU | 1.3
10 | GGGUCGCCCCGCCAUAAUCGCGUGGAUAUGGCACGCAAGUUUCUACCGGGCACCGUAAAUGUCCGACUGGAGCCGUUCGGGCGGCUAUAAACAGACCUCAGGCCCGAAGCGUGGCGGCACCUGCCGCCGGUGGUAAAAAAGAUCGGAAGAGCACACGUCU | 1.3
11 | GGGUCGCCCGUAGAUAAUCGCGUGGAUAUGGCACGCAAGUUUCUACCGGGCACCGUAAAUGUCCGACUGGAGCCGUUCGGGCGGCUAUAAACAGACCUCAGGCCCGAAGCGUGGCGGCACCUGCCGCCGGUGGUAAAAAAGAUCGGAAGAGCACACGUCU | 1.06
12 | GGGUCGCCCGUAUAUAAUCGCGUGGAUAUGGCACGCAAGUUUCUACCGGGCACCGUAAAUGUCCGACUGGAGCCGUUCGGGCGGCUAUAAACAGACCUCAGGCCCGAAGCGUGGCGGCACCUGCCGCCGGUGGUAAAAAAGAUCGGAAGAGCACACGUCU | 1.1
13 | GGGUCGCCCGUAAAUAAUCGCGUGGAUAUGGCACGCAAGUUUCUACCGGGCACCGUAAAUGUCCGACUGGAGCCGUUCGGGCGGCUAUAAACAGACCUCAGGCCCGAAGCGUGGCGGCACCUGCCGCCGGUGGUAAAAAAGAUCGGAAGAGCACACGUCU | 1.1
14 | GGGUCGCCCGUCCAUAAUCGCGUGGAUAUGGCACGCAAGUUUCUACCGGGCACCGUAAAUGUCCGACUGGAGCCGUUCGGGCGGCUAUAAACAGACCUCAGGCCCGAAGCGUGGCGGCACCUGCCGCCGGUGGUAAAAAAGAUCGGAAGAGCACACGUCU | 1.61
15 | GGGUCGCCCCCCUAUAAUCGCGUGGAUAUGGCACGCAAGUUUCUACCGGGCACCGUAAAUGUCCGACUGGAGCCGUUCGGGCGGCUAUAAACAGACCUCAGGCCCGAAGCGUGGCGGCACCUGCCGCCGGUGGUAAAAAAGAUCGGAAGAGCACACGUCU | 0.989
16 | GGGUCGCCCCGUGAUAAUCGCGUGGAUAUGGCACGCAAGUUUCUACCGGGCACCGUAAAUGUCCGACUGGAGCCGUUCGGGCGGCUAUAAACAGACCUCAGGCCCGAAGCGUGGCGGCACCUGCCGCCGGUGGUAAAAAAGAUCGGAAGAGCACACGUCU | 1.1
17 | GGGUCGCCCCGUAAUAAUCGCGUGGAUAUGGCACGCAAGUUUCUACCGGGCACCGUAAAUGUCCGACUGGAGCCGUUCGGGCGGCUAUAAACAGACCUCAGGCCCGAAGCGUGGCGGCACCUGCCGCCGGUGGUAAAAAAGAUCGGAAGAGCACACGUCU | 1.09
18 | GGGUCGCCCCGUUAUAAUCGCGUGGAUAUGGCACGCAAGUUUCUACCGGGCACCGUAAAUGUCCGACUGGAGCCGUUCGGGCGGCUAUAAACAGACCUCAGGCCCGAAGCGUGGCGGCACCUGCCGCCGGUGGUAAAAAAGAUCGGAAGAGCACACGUCU | 1.1

— the RNAGym collection of RNA variant scans (doi:10.1021/acssynbio.7b00057)
